Measured values reported in patent US20250320281A1.

Key:
Assay in all cases: cell-based or functional assay
[1] = target: HIV-1 Env of isolate 92UG005 (clade D pseudovirus) (HIV-1)
[2] = target: HIV-1 envelope glycoprotein (Env) of isolate MGRM-A-014, clade A (HIV-1)
[3] = target: HIV-1 Env of isolate 93IN905 (HIV-1)
[4] = target: HIV-1 Env of isolate 98CN006 (CRF08 BC) (HIV-1 isolate 98CN006)
[5] = target: HIV-1 Env of isolate CAAN.A2 (Acute), clade B, on pseudovirus (HIV-1)
[6] = target: HIV-1 Env of pseudovirus MGRM-G-027 (HIV-1, clade G isolate MGRM-G-027)
[7] = target: HIV-1 Env of pseudovirus MGRM-Chronic-B-017 (HIV-1)
[8] = target: HIV-1 Env of pseudovirus MGRM-AE-005 (clade CRF01_AE) (HIV-1)
[9] = target: HIV-1 Env of pseudovirus MGRM-AE-008 (clade CRF01_AE) (HIV-1)
[10] = target: HIV-1 envelope glycoprotein (Env) of isolate MGRM-A-010, clade A (HIV-1)
[11] = target: HIV-1 Env of isolate MGRM-D-024 (clade D pseudovirus) (HIV-1)
[12] = target: HIV-1 Env of pseudovirus MGRM-AG-009 (clade CRF_AG) (HIV-1)
[13] = target: HIV-1 Env of pseudovirus MGRM-AG-006 (clade CRF_AG) (HIV-1)
[14] = target: HIV-1 Env of pseudovirus MGRM-G-017 (HIV-1, clade G isolate MGRM-G-017)
[15] = target: HIV-1 Env of isolate QH0692.42 (Acute), clade B, on pseudovirus (HIV-1)
[16] = target: HIV-1 Env of isolate MGRM-Chronic-B-003, clade B, on pseudovirus (HIV-1)
[17] = target: HIV-1 envelope glycoprotein (Env) of isolate MGRM-A-006, clade A (HIV-1)
[18] = target: HIV-1 envelope glycoprotein (Env) of isolate 92RW026, clade A (HIV-1)
[19] = target: HIV-1 93IN905 envelope glycoprotein (Env) on pseudovirus (HIV-1)
[20] = target: HIV-1 Env of isolate 93MW959 (subtype C) (HIV-1)
[21] = target: HIV-1 Env of isolate MGRM-AG-005 (subtype AG) (HIV-1)
[22] = target: HIV-1 Env of isolate MGRM-AE-003 (subtype AE) (HIV-1)
[23] = target: HIV-1 Env of isolate CMU02 (clade AE), on pseudovirus (HIV-1)
[24] = target: HIV-1 envelope glycoprotein (Env) of isolate MGRM-C-026 (HIV-1)
[25] = target: HIV-1 MGRM-C-027 Env (pseudovirus, clade C) (HIV-1)
[26] = target: HIV-1 Env of isolate MGRM-A-001 (HIV-1)
[27] = target: HIV-1 APV6 Env (pseudovirus, clade B) (HIV-1)
[28] = target: HIV-1 Env of isolate MG RM-D-002 (HIV-1)
[29] = target: HIV-1 APV13 Env (pseudovirus) (HIV-1)
[30] = target: HIV-1 Env of isolate MGRM-Chronic-B-001 (subtype B) (HIV-1)
[31] = target: HIV-1 Env of pseudovirus isolate MGRM-G-028 (HIV-1)
[32] = target: HIV-1 Env of isolate 92UG001 (HIV-1)
[33] = target: HIV-1 Env of isolate MGRM-Chronic-B-018 (subtype B) (HIV-1)
[34] = target: HIV-1 envelope glycoprotein (Env) of isolate MGRM-C-023 (HIV-1)

Sequence of 1443_C16 (PG16) (TCN-116) (antibody) (VH): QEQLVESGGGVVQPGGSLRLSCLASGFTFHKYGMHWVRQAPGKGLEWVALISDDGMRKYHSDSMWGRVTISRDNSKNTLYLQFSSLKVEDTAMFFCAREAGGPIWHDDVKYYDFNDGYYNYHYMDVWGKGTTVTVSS
Sequence of 1443_C16 (PG16) (TCN-116) (antibody) (VL): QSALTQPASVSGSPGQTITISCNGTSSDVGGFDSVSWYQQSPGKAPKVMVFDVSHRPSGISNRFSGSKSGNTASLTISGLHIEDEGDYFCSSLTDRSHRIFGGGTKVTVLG
Sequence of 5329_C19 (PGT-136) (antibody) (VH): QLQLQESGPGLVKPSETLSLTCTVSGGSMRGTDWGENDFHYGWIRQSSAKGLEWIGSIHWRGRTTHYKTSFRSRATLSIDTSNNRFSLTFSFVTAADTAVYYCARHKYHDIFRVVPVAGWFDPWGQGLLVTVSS
Sequence of 5329_C19 (PGT-136) (antibody) (VL): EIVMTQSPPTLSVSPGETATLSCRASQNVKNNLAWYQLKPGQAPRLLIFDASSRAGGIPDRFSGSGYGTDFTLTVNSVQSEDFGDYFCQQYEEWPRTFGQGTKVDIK

Substance	IC50 (µg/ml), pseudovirus neutralization [1]	IC50 (µg/ml), pseudovirus neutralization [2]	IC50 [3]	IC50 (µg/ml), pseudovirus neutralization [4]	IC50 (µg/ml), pseudovirus neutralization [5]	IC50 (µg/ml), pseudovirus neutralization [6]	IC50 (µg/ml), pseudovirus neutralization [7]	IC50 [8]	IC50 [9]	IC50 (µg/ml), pseudovirus neutralization [10]	IC50 (µg/ml), pseudovirus neutralization [11]	IC50 [12]	IC50 [13]	IC50 (µg/ml), pseudovirus neutralization [14]	IC50 (µg/ml), pseudovirus neutralization [15]	IC50 (µg/ml), pseudovirus neutralization [16]	IC50 (µg/ml), pseudovirus neutralization [17]	IC50 (µg/ml), pseudovirus neutralization [18]	IC50, pseudovirus neutralization [19]	other results
2G12 (antibody)	> 50 µg/mL	> 50 µg/mL	> 50 µg/mL	> 50 µg/mL	> 50 µg/mL	> 50 µg/mL	> 50 µg/mL	> 50 µg/mL	> 50 µg/mL	17 µg/mL	> 50 µg/mL	> 50 µg/mL	3.92 µg/mL	> 50 µg/mL	4.39 µg/mL	0.06 µg/mL	13.8 µg/mL	17.2 µg/mL	> 50 µg/mL	–
5329_C19 (PGT-136) (antibody)	–	–	–	–	–	–	–	–	–	–	–	–	–	–	–	–	–	–	–	IC50 neutralization [20]: > 50 µg/mL; IC50 (µg/mL), pseudovirus neutralization [21]: > 50 µg/mL; IC50 (µg/mL), pseudovirus neutralization [22]: > 50 µg/mL; IC50, pseudovirus neutralization [23]: > 10 µg/mL; IC50 (µg/mL), pseudovirus neutralization [24]: 0.006 µg/mL; IC50 neutralization [25]: > 10 µg/mL; IC50 [26]: > 50 µg/mL; IC50 neutralization [27]: > 10 µg/mL; IC50 (µg/mL), pseudovirus neutralization [28]: > 50 µg/mL; IC50 (neutralizing activity, pseudovirus) [29]: > 10 µg/mL; IC50 neutralization [30]: > 50 µg/mL; IC50 (µg/mL), pseudovirus neutralization [31]: > 50 µg/mL; IC50 (µg/mL), pseudovirus neutralization [32]: > 50 µg/mL; IC50 neutralization [33]: > 50 µg/mL; IC50 (µg/mL), pseudovirus neutralization [34]: 3.2 µg/mL
1443_C16 (PG16) (TCN-116) (antibody)	> 50 µg/mL	20.3 µg/mL	0.25 µg/mL	> 50 µg/mL	8.83 µg/mL	0.01 µg/mL	0.02 µg/mL	0.02 µg/mL	3.25 µg/mL	0.004 µg/mL	0.02 µg/mL	> 50 µg/mL	> 50 µg/mL	0.02 µg/mL	> 50 µg/mL	0.19 µg/mL	> 50 µg/mL	0.03 µg/mL	0.102 µg/mL	–
2F5 (antibody)	8.61 µg/mL	1.43 µg/mL	> 50 µg/mL	> 50 µg/mL	23.1 µg/mL	0.28 µg/mL	> 50 µg/mL	0.14 µg/mL	> 50 µg/mL	20.8 µg/mL	> 50 µg/mL	24.8 µg/mL	0.85 µg/mL	0.6 µg/mL	5.42 µg/mL	1 µg/mL	15.7 µg/mL	8.63 µg/mL	> 50 µg/mL	–
